We go through one substance from PMC2527209.

The assay addresses non-translating mammalian (canine) ribosome (canine). Description: co-sedimentation.

For orientation: stoichiometry N means the number of molecules, sites or subunits per partner or assembly. “Sec61 complex (from UniProt P38377 1-476; P60467 1-96; P60058 1-68)” returned a stoichiometry N of 0.8.
